Where two headings read alike, the source gives them in different places. Each block holds one molecule with its values, some of them ahead of it.
How the values were obtained:
[1] = target: ctMic60sol V455D/F461D (Chaetomium thermophilum); assay: ITC
[2] = target: Chaetomium thermophilum Mic60 excluding the TM region (residues 208 to 691) (Chaetomium thermophilum); assay: native gel or EMSA
[3] = target: Chaetomium thermophilum Mic60 excluding the TM region (residues 208 to 691) (Chaetomium thermophilum); assay: native gel or EMSA; remark: listed apart in the source
[4] = target: ctMic60sol L676D (Chaetomium thermophilum); assay: native gel or EMSA
[5] = target: ctMic60sol R525C (Chaetomium thermophilum); assay: native gel or EMSA
crystal structure = target: the molecule itself; assay: crystal structure

fold reduction of affinity against ctMic60sol [1]: 30 fold
Molecule: Chaetomium thermophilum Mic19 (natural protein)

stoichiometry N [2]: 4
stoichiometry N [3]: 2
Molecule: Chaetomium thermophilum Mic60 excluding the TM region (residues 208 to 691) (domain or fragment)

stoichiometry N [4]: 2
Molecule: ctMic60sol L676D (domain or fragment)

stoichiometry N [5]: 4
Molecule: ctMic60sol R525C (domain or fragment)

B1: Mic60 coiled-coil domain from Lachancea thermotolerans (amino acids 207 to 382) (domain or fragment, UniProt C5E325 207-382, looked up)
chain: NEDIRTNVAESVAVQYGQASKDLHESFEIRAKSREVELTQQFLNEFNAFKAQLEKHSSEELASALKANEQALLAKQSNEVALLSMKQVEEFTKILSEKLDQERQGRLSKLEALNGSVQELAEAVDQVDTLVMKSEVLSQLSLLTTLLKNKLHAGDESSVKIDSELARLKTLCDILP
stoichiometry N (crystal structure): 4
